# Experimental data from publication PMC5484534 (Molecular cell, 2017).
# Assays:
# [1] = test system: BMAL1 TAD; assay: Cyclophilin acceleration of TAD switch isomerization by 15N-1H ZZ-exchange NMR; format: biochemical, mouse; conditions: room temperature (22.68°C), 400 μM 15N BMAL1 TAD + 100 μM cyclophilin, 20 mM HEPES pH 7.0 (pH 7.5 for His6GST-PPIL3), 100 mM NaCl, 2 mM TCEP
# [2] = test system: cyclophilin family; conditions: active site; ref Davis et al., 2010; cited from earlier work
# [3] = test system: Bmal1^−/−; Per2^Luc fibroblasts complemented with WT or trans-locked Bmal1; assay: CsA-induced period change in complemented Bmal1-/-; format: cell-based, mouse; conditions: particularly at 10 μM CsA
# [4] = test system: U2OS Bmal1-dLuc cells; assay: Circadian period of U2OS Bmal1-dLuc cells with inhibitors; format: cell-based, human; conditions: 0.3% DMSO, n = 3 replicates with 2 independent assays
# [5] = test system: MLL1; conditions: ref Wang et al., 2010; cited from earlier work
# [6] = test system: W624-P625 imide bond of BMAL1 TAD; assay: 15N-1H ZZ-exchange NMR kinetics of TAD switch isomerization; parameters: species or system mouse
# [7] = test system: BMAL1; conditions: screen for interacting partners; ref Lipton et al., 2015; cited from earlier work
# [8] = test system: Bmal1^−/−; Per2^Luc mouse fibroblasts; assay: Circadian period of complemented Bmal1-/-; format: cell-based; conditions: stable complementation, 37°C, dexamethasone-synchronized
# [9] = 25 °C, extrapolated from Eyring plot
# [10] = 37 °C, extrapolated from Eyring plot
# [11] = 55 °C, 400 μM 15N BMAL1 TAD, 10 mM MES pH 6.5, 50 mM NaCl, 10% D2O
# [12] = 60 °C, 400 μM 15N BMAL1 TAD, 10 mM MES pH 6.5, 50 mM NaCl, 10% D2O
# [13] = 65 °C, 400 μM 15N BMAL1 TAD, 10 mM MES pH 6.5, 50 mM NaCl, 10% D2O
molecule,measurement,setting,value
PPIF: mitochondrial cyclophilin [reference compound],"activity on TAD switch isomerization, in words",[1],at least as active on the TAD as the top-ranked nuclear cyclophilins
Cyclosporin A [CsA],affinity for cyclophilin family,[2],5 to 500 nM
same,switch-independent effect on period,[3],Switch-independent changes in period
same,effect on circadian period,[4],dose-dependent lengthening of circadian period with low doses
PPIE: human nuclear cyclophilin [reference compound],binding to MLL1,[5],binds to the histone methyltransferase MLL1 to modulate its activity
same,"activity on TAD switch isomerization, in words",[1],significantly increased the rate of isomerization in BMAL1
"BMAL1 TAD: Mouse BMAL1 TAD (residues 579–626), recombinant",overall exchange lifetime,[6]; 25 °C,approximately 10 minutes
same,Rate of isomerization cis➔trans,[6]; [9],0.00458 s⁻¹
same,Rate of isomerization trans➔cis,[6]; [9],0.00264 s⁻¹
same,Time per isomerization event cis➔trans,[6]; [9],218.34 s
same,Time per isomerization event trans➔cis,[6]; [9],378.78 s
same,detection of isomerization by ZZ exchange,"[6]; 25 °C, in words",too slow to be detected at room temperature
same,Rate of isomerization cis➔trans,[6]; [10],0.0233 s⁻¹
same,Rate of isomerization trans➔cis,[6]; [10],0.0135 s⁻¹
same,Time per isomerization event cis➔trans,[6]; [10],42.92 s
same,Time per isomerization event trans➔cis,[6]; [10],74.07 s
same,Time per isomerization event cis➔trans,[6]; 55 °C,4.65 s
same,Time per isomerization event trans➔cis,[6]; 55 °C,8.06 s
same,Rate of isomerization cis➔trans,[6]; [11],0.215 s⁻¹
same,Rate of isomerization trans➔cis,[6]; [11],0.124 s⁻¹
same,Time per isomerization event cis➔trans,[6]; 60 °C,2.62 s
same,Time per isomerization event trans➔cis,[6]; 60 °C,4.55 s
same,Rate of isomerization cis➔trans,[6]; [12],0.382 s⁻¹
same,Rate of isomerization trans➔cis,[6]; [12],0.22 s⁻¹
same,Time per isomerization event cis➔trans,[6]; 65 °C,1.50 s
same,Time per isomerization event trans➔cis,[6]; 65 °C,2.60 s
same,Rate of isomerization cis➔trans,[6]; [13],0.667 s⁻¹
same,Rate of isomerization trans➔cis,[6]; [13],0.384 s⁻¹
same,temperature at which exchange cross peaks first appeared,[6]; ZZ exchange at increasing temperature,55 °C
"PPIA: peptidyl prolyl isomerase A, human cyclophilin",co-immunoprecipitation with BMAL1,[7],co-immunoprecipitated with BMAL1
CC1(C)[C@H](C(=O)O[C@H](C#N)c2cccc(Oc3ccccc3)c2)[C@@H]1C=C(Br)Br [Deltamethrin],effect on circadian period,[4],did not elicit a change in period
wild type Bmal1: Flag-tagged mouse Bmal1 stably complemented in cells,circadian period,[8],approximately 23 hours
PPIH: human nuclear cyclophilin [reference compound],"activity on TAD switch isomerization, in words",[1],significantly increased the rate of isomerization in BMAL1
